Results published in patent publication US20230406925A1 (PHYLAXIS BIOSCIENCE, published 2023).
Each block holds one binder with its values, some of them ahead of it.

Assays:
[1] = molecular target: T1, human Siglec-8 (full-length, on cells) (human, UniProt Q9NYZ4 17-499); test: flow cytometry, CHO cells transiently transfected with full-length human Siglec-8, A647 anti-human Fc-gamma secondary, Mean RL1-H
T1 construct: Used for full-length human Siglec-8 transiently expressed on CHO or 293 cells and for native Siglec-8 on primary human eosinophils
Description: Binding of the anti-human Siglec-8 VHHs, B12, D1, E2, and G2, as a bivalent VHH-hIgG1-xELL-Fc (VHH of SEQ ID NO: 49, 55, 61, and 1, respectively linked to an Fc xELL via linker 2, these constructs are also designated cx8982, cx8983, cx8984, and cx10382, respectively) was determined by flow cytometry using CHO cells that had been transiently transfected with full-length human Siglec-8. Binding specificity was assessed using untransfected (UT) CHO cells as a control. For the binding assays, 50,000 Siglec-8 CHOs or UT CHOs were seeded in a 96-well plate and a titration of anti-Siglec8-VHH-xELL was added in FACS Buffer (PBS 1% BSA, 0.1% NaN3 pH 7.4) incubating for 30 minutes at 4° C. After washing, the plates were incubated with an A647-conjugated anti-human Fcγ specific secondary antibody (Jackson ImmunoResearch) diluted 1:2000 in FACS buffer for 30 minutes at 4° C. The plates were washed, and binding was determined by flow cytometry quantitating anti-human A647 mean fluorescent intensity using an Intellicyt iQue Plus.

[2] = molecular target: T1, human Siglec-8 (full-length, on cells); test: flow cytometry on human eosinophils (CD16- CCR3+) from whole blood, anti-human AF647 secondary, MFI
Excerpt: To determine if increasing the valency of Siglec-8 antibodies could enhance agonist activity, the parental llama B12, D1 and E2 VHH sequences were used to generate tetravalent (Tet-B12 (cx8467; SEQ ID NO:50 linked to an Fc), Tet-D1 (cx8469; SEQ ID NO:56 linked to an Fc), and Tet-E2 (cx8463; SEQ ID NO:62 linked to an Fc)) and hexavalent (Hex-B12 (cx8466; SEQ ID NO:51 linked to an Fc), Hex-D1 (cx8523; SEQ ID NO:57 linked to an Fc), and Hex-E2 (cx8522; SEQ ID NO:165 linked to an Fc)), Siglec8-VHH-Fc antibodies linked to a reduced effector function xELL human Fc region via linker 2. The bivalent (Bi-B12 (cx8982), Bi-D1 (cx8983) and Bi-E2 (cx8984)), tetravalent, and hexavalent Siglec8-VHH-Fc antibodies were assessed by flow cytometry for binding to eosinophils (CD16⁻ CCR3⁺). […] Cells were spun down and then resuspended in titrated test articles starting at 200 nM 1:4 and incubated for 30 minutes at 4° C. before being washed twice and resuspended in secondary mixture (2*; anti-CCR3 FITC, anti-human AF647, PI, anti-CD16 BV605) and incubated for 30 minutes at 4° C., washed twice, and bound antibodies were detected via flow cytometry (Novocyte). […]

[3] = molecular target: T1, human Siglec-8 (full-length, on cells); test: flow cytometry, CHO cells transfected with human Siglec-8, anti-human Fc-gamma secondary, Median RL1-H
Description: In additional studies, the parental llama G2 sequence was humanized and multivalent hzSiglec8-G2v14-Fc antibodies were cloned with a reduced effector function xELL human Fc. Binding of bivalent (cx11422; SEQ ID NO: 5 linked to an Fc xELL via linker 2), tetravalent (cx11580; SEQ ID NO: 9 linked to an Fc xELL via linker 2), and hexavalent (cx11579; SEQ ID NO: 10 linked to an Fc xELL via linker 2) hzSiglec8-G2v14-Fc antibodies were assessed by flow cytometry using CHO cells transfected with human Siglec-8. A titration series of the fusion proteins were incubated with the Siglec8-expressing CHO cells (5×10⁴ cells/well) for 30 minutes at 4° C. in FACS Buffer (PBS 1% BSA, 0.1% NaN3 pH 7.4) in 96 well plates. Following one 150 μL wash with FACS buffer, an APC-conjugated anti-human Fcγ specific secondary antibody (Jackson ImmunoResearch) was added, and cells were incubated for 30 minutes at 4° C. Following one additional wash in FACS buffer, bound antibodies were detected via flow cytometry (iQue Intellicyte).
The calculated affinity was similar between the bivalent, tetravalent, and hexavalent hzSiglec8-G2v14-Fc antibodies. The observed Bmax was reduced with increasing valency as anticipated, due the fact that the Fc portion of the antibody was detected in this assay and the ratio of Fc regions to anti-Siglec-8 binding domains is inverse to valency.

T1 sequence (Q9NYZ4 17-499): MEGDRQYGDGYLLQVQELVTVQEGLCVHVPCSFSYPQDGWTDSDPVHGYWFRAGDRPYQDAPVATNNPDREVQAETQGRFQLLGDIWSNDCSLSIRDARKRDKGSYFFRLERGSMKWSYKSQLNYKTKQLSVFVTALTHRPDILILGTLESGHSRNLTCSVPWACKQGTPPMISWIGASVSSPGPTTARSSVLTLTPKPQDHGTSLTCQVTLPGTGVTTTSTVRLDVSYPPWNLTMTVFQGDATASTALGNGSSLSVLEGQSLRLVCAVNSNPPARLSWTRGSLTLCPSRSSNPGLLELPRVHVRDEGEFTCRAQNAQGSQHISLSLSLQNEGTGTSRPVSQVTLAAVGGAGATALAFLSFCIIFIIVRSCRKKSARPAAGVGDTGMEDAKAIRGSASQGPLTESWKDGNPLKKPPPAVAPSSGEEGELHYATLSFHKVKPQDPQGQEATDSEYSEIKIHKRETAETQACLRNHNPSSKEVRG

EC50 (read off the curve) [1]: ~300 pM
B1: anti-Siglec8-E2-xELL, bivalent VHH-hIgG1-xELL-Fc (cx8984) (Fc fusion)
chain: QVQLVESGGGLVQPGGSLRLSCATSGIIFTSNVINWYRQAPGKQREFVAFITSITSGQSTMYADAVKGRFTVSRDNDKNIGYLQMTSLQPEDTARYVCNVGAYWGQGTQVTVKPGGGGDKTHTCPPCPAPGGPSVFLFPPKPKDTLMISRTPEVTCVVVDVSHEDPEVKFNWYVDGVEVHNAKTKPREEQYNSTYRVVSVLTVLHQDWLNGKEYKCKVSNKALPAPIEKTISKAKGQPREPQVYTLPPSRDELTKNQVSLTCLVKGFYPSDIAVEWESNGQPENNYKTTPPVLDSDGSFFLYSKLTVDKSRWQQGNVFSCSVMHEALHNHYTQKSLSLSPGK
notes: also called Bi-E2

EC50 (read off the curve) [2]: ~50 pM
B2: anti-Siglec8-D1-xELL, bivalent VHH-hIgG1-xELL-Fc (cx8983) (Fc fusion)
chain: QVQLVESGGGLVQPGGSLRLSCAASGSIASIHGMGWYRQAPGKERELVAAIAGEGSTYYADSVKGRFTISRDFAKNTLYLQMNNLKAEDTAMYYCANNDERDDYWGQGTQVTVKPGGGGDKTHTCPPCPAPGGPSVFLFPPKPKDTLMISRTPEVTCVVVDVSHEDPEVKFNWYVDGVEVHNAKTKPREEQYNSTYRVVSVLTVLHQDWLNGKEYKCKVSNKALPAPIEKTISKAKGQPREPQVYTLPPSRDELTKNQVSLTCLVKGFYPSDIAVEWESNGQPENNYKTTPPVLDSDGSFFLYSKLTVDKSRWQQGNVFSCSVMHEALHNHYTQKSLSLSPGK
notes: also called Bi-D1

EC50 (read off the curve) [3]: ~30 pM
B3: tetravalent hzSiglec8-G2v14-Fc antibody, Fc xELL (cx11580) (Fc fusion)
chain: EVQLLESGGGEVQPGGSLRLSCAASGSISIFSMYVVAWYRQAPGKEREWVAFIQRGGTANYAESAKGRFTISRDNAKNTVYLQMSSLRAEDTAVYYCNYINTDNEIGGPWGQGTLVTVKPGGSGGSEVQLLESGGGEVQPGGSLRLSCAASGSISIFSMYVVAWYRQAPGKEREWVAFIQRGGTANYAESAKGRFTISRDNAKNTVYLQMSSLRAEDTAVYYCNYINTDNEIGGPWGQGTLVTVKPGGGGDKTHTCPPCPAPGGPSVFLFPPKPKDTLMISRTPEVTCVVVDVSHEDPEVKFNWYVDGVEVHNAKTKPREEQYNSTYRVVSVLTVLHQDWLNGKEYKCKVSNKALPAPIEKTISKAKGQPREPQVYTLPPSRDELTKNQVSLTCLVKGFYPSDIAVEWESNGQPENNYKTTPPVLDSDGSFFLYSKLTVDKSRWQQGNVFSCSVMHEALHNHYTQKSLSLSPGK
